The values that follow come from patent publication US20230055566A1.

The target in assay [1] is human FGFR2b (beta)-Fc (human) (UniProt P21802). Nature of the assay: SPR (Biacore), hFGFR2b-Fc immobilized on CM5 chip, antibody injected at 0-200 nM.
Assay [2] addresses recombinant human FGFR2b-Fc (murine Fc) (human) (UniProt P21802). The assay is described as follows: ELISA, plate coated with human FGFR2b-Fc, anti-human IgG HRP.
The target in assay [3] is endogenous FGFR2b on the cell membrane of human gastric cancer cells (KATOIII, SNU16) (human) (UniProt P21802). Nature of the assay: flow cytometry on FGFR2b expressing KATOIII cells. For orientation: In flow cytometry, cells or beads pass a laser one at a time.
Assay [4] deals with human FGFR2b on engineered Ba/F3 cells (Ba/F3-FGFR2b) (human), P21802. Nature of the assay: cell-based or functional assay.
human FGFR2b on engineered Ba/F3 cells (Ba/F3-FGFR2b) (human), P21802, sequence (P21802 22-821, change not shown): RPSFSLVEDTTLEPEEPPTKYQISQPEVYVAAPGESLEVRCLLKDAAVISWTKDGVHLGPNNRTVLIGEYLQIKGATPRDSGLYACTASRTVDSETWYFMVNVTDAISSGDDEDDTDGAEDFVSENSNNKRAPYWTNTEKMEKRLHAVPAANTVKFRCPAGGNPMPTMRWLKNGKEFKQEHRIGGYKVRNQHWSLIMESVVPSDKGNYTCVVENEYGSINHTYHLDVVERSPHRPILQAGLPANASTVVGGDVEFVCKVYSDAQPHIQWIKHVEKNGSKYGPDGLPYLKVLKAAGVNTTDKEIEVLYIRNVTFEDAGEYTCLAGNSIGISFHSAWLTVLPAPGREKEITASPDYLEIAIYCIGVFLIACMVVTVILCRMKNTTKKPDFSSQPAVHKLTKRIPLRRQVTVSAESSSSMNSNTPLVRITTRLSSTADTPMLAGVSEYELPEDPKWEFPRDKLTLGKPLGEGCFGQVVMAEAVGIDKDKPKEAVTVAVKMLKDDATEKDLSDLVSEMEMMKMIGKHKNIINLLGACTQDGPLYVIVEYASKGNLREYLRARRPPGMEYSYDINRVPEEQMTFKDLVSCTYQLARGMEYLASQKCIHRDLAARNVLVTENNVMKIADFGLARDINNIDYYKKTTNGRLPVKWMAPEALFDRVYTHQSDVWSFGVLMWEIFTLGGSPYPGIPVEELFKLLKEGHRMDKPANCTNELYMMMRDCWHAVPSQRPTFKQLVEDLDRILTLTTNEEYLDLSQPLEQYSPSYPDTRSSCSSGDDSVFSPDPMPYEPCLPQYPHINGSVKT
Assay [5] addresses human FGFR2b (beta)-Fc (human) (UniProt P21802). The assay is described as follows: ELISA, plate coated with HuFGFR2b. Background: ELISA stands for enzyme-linked immunosorbent assay.
The target of assay [6] is recombinant human FGFR1b-Fc (human) (UniProt P11362). The assay is described as follows: SPR (Biacore), hFGFR1b-Fc immobilized on CM5 chip, antibody injected at 0-200 nM.
recombinant human FGFR1b-Fc (human), sequence (P11362 other isoform, or with tags, fused parts or gaps): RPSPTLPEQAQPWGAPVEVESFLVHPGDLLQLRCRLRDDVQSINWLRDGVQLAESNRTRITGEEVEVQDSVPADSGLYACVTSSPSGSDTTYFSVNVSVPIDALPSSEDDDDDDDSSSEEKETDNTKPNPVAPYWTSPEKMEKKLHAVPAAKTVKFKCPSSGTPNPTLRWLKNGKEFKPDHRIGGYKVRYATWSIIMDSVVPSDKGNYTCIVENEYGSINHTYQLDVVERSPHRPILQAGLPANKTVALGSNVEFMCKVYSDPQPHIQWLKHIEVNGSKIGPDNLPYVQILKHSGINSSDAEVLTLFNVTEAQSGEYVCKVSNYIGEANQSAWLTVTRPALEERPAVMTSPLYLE
Assay [7] shares this target. The assay is described as follows: SPR (Biacore T200), hFGFR1b-Fc amine-coupled on CM5 chip, antibody as analyte. A general note: Surface plasmon resonance follows binding to a sensor surface in real time, without labels.

Changes are numbered by the printed parent chain.

The term Kd denotes the constant that tells how readily two partners part at equilibrium. For orientation: koff means the rate constant with which the complex falls apart. As usually defined, the kon is the rate constant with which the complex forms. One may read the EC50 (read off the curve) as the concentration that produces a half-maximal response. Usually EC50 stands for the concentration giving half of the maximal effect. A high value points to weaker potency.

B1: Ab 21c (antibody, V domains shown)
VH: EVQLHQSGTVLARPGASVKMSCKTSGYTFTNYWMHWIKQRPGQGLEWIGAIYPENGDINYNQKFKGKAKLTAVTSASTAYMDLSSLTNEDSAVYYCTSRGDYWGQGTTLTVSS
VL: QIVLTQSPAIMSASPGEKVTMTCSASSGLSYMSWYQQKPGSSPRLLIYDTSNLASGVPVRFSGSGSGTSYSLTISRMEAEDAATYYCQQWSSYPYTFGGGTKLEIK
In the case of B1, in assay [1], the Kd came out at 0.269 nM, the koff turned out to be 2.46e-05 s⁻¹ and the kon was found to be 91300 M⁻¹ s⁻¹. Besides, in assay [2], the EC50 (read off the curve) is 0.4 nM. Further, the EC50 in assay [3] is 8 nM. This molecule registered a GI50, inhibition of FGF7-induced BaF3 cell proliferation (MTS, 72 hours) in assay [4] of 10 nM.

B2: Ab 21 (antibody, V domains shown)
VH: B1 VH
VL: B1 VL
In assay [5], B2 displayed an EC50 (read off the curve) of 0.4 nM.

B3: FPA144 (antibody, INN chains, looked up, V domains shown)
VH: QVQLVQSGAEVKKPGSSVKVSCKASGYIFTTYNVHWVRQAPGQGLEWIGSIYPDNGDTSYNQNFKGRATITADKSTSTAYMELSSLRSEDTAVYYCARGDFAYWGQGTLVTVSS
VL: DIQMTQSPSSLSASVGDRVTITCKASQGVSNDVAWYQQKPGKAPKLLIYSASYRYTGVPSRFSGSGSGTDFTFTISSLQPEDIATYYCQQHSTTPYTFGQGTKLEIK
For B3, in assay [6], the koff stood at 0.00746 s⁻¹ and the kon was determined as 33200 M⁻¹ s⁻¹. In assay [7], the Kd is 225 nM.

B4: Ab hu21-26 (antibody, human IgG1, V domains shown)
VH: EVQLVQSGAEVKKPGASVKVSCKASGYTFTNYWMHWVRQAPGQGLEWMGAIYPENRDINYNQKFKGRVTLTRDTSISTAYMELSRLRSDDTAVYYCTSRGDYWGQGTTVTVSS
VL: AIQLTQSPSSLSASVGDRVTITCSASSGLSYMSWYQQKPGKAPKLLIYDTSNLASGVPSRFSGSGSGTDFTLTISSLQPEDFATYYCQQWSSYPYTFGQGTKLEIK
In assay [1], B4 had a Kd of 0.482 nM, a koff of 5.58e-05 s⁻¹ and a kon of 116000 M⁻¹ s⁻¹.

B5: Ab hu21-21 (antibody, V domains shown)
VH: B4 VH with R56G
VL: B4 VL
In assay [1], B5 returned a Kd of 0.25 nM, a koff of 2.45e-05 s⁻¹ and a kon of 98000 M⁻¹ s⁻¹.
